Literature values, collected in publication PMC8463877.

Legend:
[1] = target: Aβ42 fibrils Aβ1-42 (Homo sapiens) (UniProt P05067)
[2] = target: apoC-II fibrils (Homo sapiens) (UniProt P02655)
apoC-II fibrils (Homo sapiens), sequence (P02655 23-101): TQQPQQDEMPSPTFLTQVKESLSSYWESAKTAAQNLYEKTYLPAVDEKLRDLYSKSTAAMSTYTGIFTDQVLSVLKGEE

αB-crystallin, sequence (P02511 whole entry): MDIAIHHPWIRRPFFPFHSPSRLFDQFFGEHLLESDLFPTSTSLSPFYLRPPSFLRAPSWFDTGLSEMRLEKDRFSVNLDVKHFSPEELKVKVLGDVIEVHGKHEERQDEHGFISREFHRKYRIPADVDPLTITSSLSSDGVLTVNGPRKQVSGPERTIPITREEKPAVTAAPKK
Aβ42 fibrils Aβ1-42 (Homo sapiens), sequence (P05067 1-42): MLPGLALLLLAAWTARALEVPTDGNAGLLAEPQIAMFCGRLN

- Kd [1]: 2.1 µM
- Kd [2]: 5.4 µM
Substance: αB-crystallin (from UniProt P02511)
